Laboratory results taken from the nanobody polyreactivity screen of Harvey et al. (2022).

Assay: yeast display, Sf9 membrane polyspecificity reagent, FACS + sequencing; frameworks hold sequencing errors
Summary of the method: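 Genes from sorted yeast were amplified by colony PCR, read by MiSeq 2 × 250 sequencing and filtered on CDR length. These cells carried a synthetic nanobody library in Saccharomyces cerevisiae BJ5465 and were sorted by FACS into low and high (top ~1%) gates on anti-HA and streptavidin fluorescence. Polyreactivity is labelled according to the gate of origin.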

Sequence | polyreactivity (PSR sort gate)
QVQLVDSGGGLVQAGGILRLSCAASGSTFRRYSMGWYRHAPGKQRELVAAISGRGGSTSYADSVKGRFTISRDNAKNTVYLQINSLKPEDTAVYYCAADDKYFYPGNGYWGQGTQVTVSS | high polyreactivity
QVQLVESGGGLVQAGGSLRLSCAASGFTFGYNDMGWYRQAPGKERELVAGIRSGDDTNYADSVKGRFTISRDNAKNTVYLQMNSLKPEDTAVYYCAVGYGDYLYYDYDYWGQGTQVTVSS | low polyreactivity
QVQLEDSGGGLVQAGGRLRLSCAASGSIFFSYAMGWYRQAPGTERELVAGINWSGGSTYADCVKGRFTISRDNAKNTVYLQMNSQKPEDTAVYYCAAKYYSERSRYHYWGLGTQVTVSS | low polyreactivity
QDQLVESGGGLVQAGGSLRLSCAASGRTLGKNAMGWYRQAPGTERELVAAISSSGGSTYYADSVKGRFTISRDNAKNTVYLQMNSLKPEDTAVYYCAAKYFRKYSQIGPDMYYWGQGTQVTVSS | high polyreactivity
QVQLVESGGGLVQAGVSLRLSCAASGRIFGPYAMGWYRQAPGKERELVAAITWRGDRTYYADSVKGRFTISRDNAKNTVYLQMNSLKPEDTAVYYCAARGGRSEYDYWGLGTQVTVSS | low polyreactivity
QVQLVESGGGLVQAGGSLRLSCAASGRIFIAYAMGWYRQAPWKEREFVAAISSRGGSTYYADSVKGRFTISRDNAKNTVYLQMNSLKPEDTAVYYCGAWTLYWSHTTWSYDYWGQGTQVTVSS | low polyreactivity
QVQLVESGGGLVQAGGSLRLSCAASGRIVKYAMGWYRQAPGKERELVAAISGSGGTTYYADSVKGRFTISRDNAKNTVYLQMNSLKPEETAVYYCAASRPRPPSSRRMDYWGQGTQVTVSS | high polyreactivity
QVQRVESGGGLVQAGGSLRLSCAACGLTFRQYAMVWYRQAPGKERELVAAIRSRGGSTYYADSVKGRFTISRDNAKNTVYFQMNSLKPEDTAVYYCAAGGRGWWLYRYNFFSEMDYWGQGTQVTVSS | high polyreactivity
QVQLVESGGGLVQAGGSLRLSCAASGFTFNKYAMGWYRQAPGKERELVAAISSSGGSTRYADSVKGRFTISRDNAKNTVYLQMNSLKPEDTADYYCAVYVTSDSGWWLYDYWGQGTQVTVSS | high polyreactivity
QVQLVESGGGLVQAGGSLRLSCAASGRTFFYYAMGWYRQAPGKERELVAAISTNGGSTYYADSVKGRFTISRDNAKNTVYLQMNSLKPEDTAVYYCNTYATPHRSGGGLGGHYYWGQGTQVTVSS | low polyreactivity
QVQLVESGGGLVQAGGSLRLSCAASGRTFYYYTMGWYRPAPGKERELVAAISSTGNTYYADSVKGRFTISRDNAKNTVYLQMNSLKPEDTAVYYCAALRYVNLLAQAYEYWGQGTQVTVSS | high polyreactivity
QVQLVESAGGLVQAGGSLRLTCAASGRTFHHNAMGWYRQPPGKERELFAAITSVGNTYADSVKGRFTISRDNAKNTVYLLMNSMKPEDTAVYYCNARIYDSRFYWSPATSRFEYWGQGTQVTLSS | low polyreactivity
QVQLVESGGRLVQAGGSLRLRCAASGRTFYWNGMGWYRQSPGKERELVAAITVSVGSTYFADSVKGRFTISRDNAKNTVSLQMNSLKPEDTAVYYCNADAYYEARIWSYRKGDYWGQGTQVTVSS | low polyreactivity
QVQLVESVGGLVQAGGSLRLSCAASGRIFWGYDMGWYRQAPGKEREFVAAISSGGGRTYYADSVKGRFTISRDNAKNTVYLQMNSLKPEDTAVYYCNADSGSYWVPRGYEYWGQGTRVTVSS | low polyreactivity
QVQLVESGGGLVQAGGSLRLSCAASGFILYYYAMGWYRQAPGKERELVASISRRGGSTYYADSVKGRFTISRDNAKHTVYLQMNSLKPEDTAVYYCNAYSTYIKYDYWGHGTQVTVSS | high polyreactivity
QVQLVESGGGLVQAGGSLRLSCAASGYIFYNYAMGWYRQAPGKERELVAAISRRGGSTYYADSVKGRFTISRDNAKNTVYLQMNSLKPEDTAVYYCAKTPYAHPNYYTDYYWGQGTQVTVSS | high polyreactivity
QVQLVESGGGLVQAGGSLRLSCAASGFIFSYYAMGWYRQAPGKERELVAAISKTGGNTFYADSVKGRFTISRDNAKNTVYLQMNSLKPEDTGVYYCNALRGDWRDMGYWGQGTQVTVSS | high polyreactivity
QVQLVESGGGLVQAGGSLRLSCAASGITFSYYAMGWYRQAPGKERELVAASTSGGSTKYADSVKGRFTISRDNAKNTVYFQMNSLKPEDTAVYYCAVRIRRSHDYDYWGQGPQVTVSS | low polyreactivity
QVQLVESGGGLVQAGGSLRLSCAASGLTFHYYAMGWYRQAPGKERELVAVISSGGSTYYADSVKGRFTISRDNAKNTVYLQMNSLKPEDTAVYYCAKLSLSWDGYYQYDYRGQGTQVTVSS | low polyreactivity
QVQLVESGGGLVQAGGSLRLSCAASGRTFRYYALGWYRQAHGKERELVPRITRGATTNYADSVKGRFTISRDNAKNTVYLQMNSLKPEDTAVYYCAVTPLYGSDRRGWFSSDYWGQGTHVTVSS | high polyreactivity
QVQLVESGGGLVQAGGSLRLSCAASGYTFGLYTMGWYRQAPGKEREFVATIDWSDGGTHYADSVKGRFTISRDNAKNTVYLQMNSLKPEDTAVYYCNADWYAYPYGYWGQGTQVTVSS | low polyreactivity
QVQLQERGGGLVQVGGSKRLSCAASGNIFYNYSMGWYRHAQGKEREFDDTINHGTSINYADSVKGRFTISRDKATNTGYLEMNSLKPEDTAVFYCAADRSWTDNLFYWGQGSQVTVSS | low polyreactivity

Sequence | polyreactivity (PSR sort gate)
QVQLVESGGGIVQAGGSLRLSWAASGRNFYRNAMGWYRQAPGKERELVAAISRSGGSTYYADSVKGRFTISRDNAKNTVYLQMNSLKAADTAVYYFNAYRYLQSGPPRYREHGSWGQGTQVNVSS | low polyreactivity
QVHLVETGGGLVHAGGSLRLSCASSGNIFSWYAMGWYRQAPGKEREFVAVIRGRGGSTYYADSVKGRFTISRDNAKNNVYLLMKSLKPEDTAVYYCAIRGFVLYFYRSGYGYGYWGQGTQVTVSS | low polyreactivity
QVQLVESGGGLVQAGGSLRLSCAASGFTFYRNAMGWYRQAPGKEWELVAGITRSGGSTYYADSVKGRFTISRDNAKNTVYLQMNSLKPEDTAVYYCNKAYGGDKYSGTYDYWGQGTQVTVSS | high polyreactivity
QVQLVESGGGLVQAGGSLRLSCAASGYTFGTYDKGWYRQAPGKERELVAAISIGGSTNYADSVKGRFTISRDNAKNTVYLQMNSLKPEDTAVYYCAAEVNVGTLLLSVIVEDGDYWGQGTQVTVSS | low polyreactivity
QVQLVESGGGLVQAGGSLRLSCAASGRIFRKYTKGWYRQAPGKERELVAAITGTGGSTYYADSVKGRFTISRDNAKNTVYLQMNSLKPEDTAVYYCAADYSARYGFWGLGTQVTVSS | high polyreactivity
QVQLVESGGGLVQAGGSLRLSCAASGSTFASYAMGWSRQAPGKERELVAAIRWRGGTTYYADSVKGRFTISRDNAKNTVYLQMNSLKPEDTAVYYCNADRYYLYYYWGQGTQVTVSW | low polyreactivity
QVQLVESGGGLVQAGGSLRISCAASGNIFPYYAMGWYRQAPGKERELVATITRGGRTNYADSVKGRFTISRDNAKNTVYLQMNSLKPEDTAVYYCASYSYTLTYRFDYWGQGTQVTVSS | low polyreactivity
QVQLVESGGGLVQAGGSLRLSCAASGFIDAYTMGWYRQAPGKERELVAAITWSGGRTYYADSVKGRFTISRDNAKNTVYLQMNSLKPEDTAVYYCAATVSRGFYSWWYDYWGQGTQVTVSS | low polyreactivity
QVQLVESGGGLVQAGGILRISCAASGRTSYWYAMAWYRQAPGKERELVADISWSGGSTYYADSVKGRFTISRDNAKNTVYLQMNSLNPEDTAVYYCIGAEQKYSIYYAFDTGPYDYWGQGTQVTVSS | low polyreactivity
QVQLVESGGGLVQAGGSLRLSCAASGSIFPRNAMGWYRQAPGKERELVAAISWRGGRTYYADSVKGRFTISRDNAKKTVYLQMNSLNPEDTAVYYCSEQYSRWKRGEYYLSSSYGYWGQGTQVTVSS | high polyreactivity
QVQLVESGGGIVQAGGSLRLSCDASGSIFNYYTMGWYRQEPGKERELVAAISYRGGRTYYADSVKGRFTISRDNAKNTVYLQMNSLKPEDTAVYYCAAGWLLYVFFPREYYYWGQGTQVTVSS | high polyreactivity
QVQLVESGGGLLQAGGSLRLSSAASGRTFSTNAMGWYRQAPGKERELVAAITSRGGSTYYADSVKGRFTISRDNAKNTVYLQMNSLKPEDTAVYYCAAGWLPKYGYWGQGTQVTVSS | low polyreactivity
QVQLVESGGGLVQAGGSLRLSCSASGLIFYDYDMGWYRQAPGKERELVAAISNDASTYYADSVKGRFTISRDNGKNTVYFQMNSLKPEDTAVYYCAAEPYVFGLSSKPFWYNYWGQGTQVTVSS | low polyreactivity
QVQLVESGGGLVQAGGSLRLSCAASGAIFVFYVMGWYRQAPGKERELVAAISNSGSSTYYADSVKGRFTISRDNAKNTVYLQMNSLKPEDTAVYYCAAEYKIPVGFDYWGQGTQVTVSS | low polyreactivity
QVQLVESGGGLVQAGGSLRLSCAASGSTFGNYAMGWYRQAPGKERELVAAIRSRGGRTYYADSVKGRFTISRDYAKNTVYLQMNSLKPVDTAVYYCARDSRTGYYYWGQGTQVTVSS | high polyreactivity
QVQLVESGGGLVQAGGSLRLSCAASGSTFTANAMGWSRQAPGKERELVAAISRSGGSTYYADSVKWRFTISRDNAKNTVYLQMNSLKPEDTAVYYCAAESPLFSPPDGEDYWGQGTQVTVSS | low polyreactivity
QVQLVESGGGLVQAGGSLRLSCAASGRIIGLYAMGWYRQAPGKEMELVAAISSAGSTYYADSVKGRFTISRDNAKNTVYLQMNSLKTEDTAVYYCDKSRYRGYDYWGQGTQVTVSS | low polyreactivity
QVQLVESGGGLVQAGGSLRLSCAASGRIFSYNDMGWYRQAPGKERELVAAISWNSGRTYYADSVKGRFTISRDNAKNTVYLQMNSLKPEDTAVYYCNAPYWKSRFRAYYHWGQGTQVTVSS | high polyreactivity
QVQLVESGGGLVQAGGSHRLSCAASGLIFPYNAMGWYRQAPGKERELVAAIDSGVTTYYADSVKGRFTISRDNAKNTVYLQMNSLKPEDTAVYYCAADGLPGPEGDSWGQGTQVTVSS | low polyreactivity
QVQLVESGGGLVQAGGSLRLSCAASGRIFNRNAMGWYRQPPGKERELGAAISRSGSRTYYADSVKWRFTISRDNAKNTVYLQMNSLKPEDTAVYYCAVSGYSPYLYRYGYWGQGTQETVSS | high polyreactivity
QVQLVESGGGLVQAGGSLRLSCAASGRTFPTNAMGWYRQAPGKERELVARISTRGGSTYYADSVKGRFTISRDNAKNTVYLQMNSLKPEDTAVYYCAARYQGNYRTDKYDYWGQGTQVTVSS | high polyreactivity
